We go through one protein from FireProtDB (doi:10.1016/j.bpj.2010.04.076).

The conditions of this series: Bacillus subtilis (strain 168), pH 7, CD, transition: 2, reversible: yes, whole UniProt chain shown.

B1: Adenylate kinase wild type, P16304 (protein)
chain: MNLVLMGLPGAGKGTQGERIVEDYGIPHISTGDMFRAAMKEETPLGLEAKSYIDKGELVPDEVTIGIVKERLGKDDCERGFLLDGFPRTVAQAEALEEILEEYGKPIDYVINIEVDKDVLMERLTGRRICSVCGTTYHLVFNPPKTPGICDKDGGELYQRADDNEETVSKRLEVNMKQTQPLLDFYSEKGYLANVNGQQDIQDVYADVKDLLGGLKK
As usually defined, the Tm is the temperature at which the thermal transition is half complete. Turning to B1, where the note is “20 °C, GdnHCl, Phosphate buffer 10mM”, the unfolding free energy turned out to be 3.34 kcal/mol. Also, for the setting “Thermal, KH2PO4 10mM”, the Tm was found to be 48.4 °C.
